One block for each molecule: values may come before it.
Key:
[1] = target: GPR158 (residues 1–863) (human) (UniProt Q5T848); test: cryo-EM structure; GPR158 (1-863), RGS7-Flag and Gβ5 co-expressed, co-purified by anti-Flag resin and Superose 6 in LMNG/CHS, treated with 0.1% OG; 2:1:1 and 2:2:2 complexes sorted from one sample
apo GPR158 (human) = apo GPR158 (human) (UniProt Q5T848); test: cryo-EM structure; apo GPR158 in 20 mM HEPES pH 7.5, 200 mM NaCl, 0.01% LMNG, 0.001% CHS, 5 mM EDTA, with 0.1% OG added; 12.7 mg/ml
[2] = target: the molecule itself; test: cryo-EM structure; GPR158 (1-863), RGS7-Flag and Gβ5 co-expressed, co-purified by anti-Flag resin and Superose 6 in LMNG/CHS, treated with 0.1% OG; 2:1:1 and 2:2:2 complexes sorted from one sample

stoichiometry N (RGS7–Gβ5 heterodimer per GPR158 dimer) [1]: 1 | stoichiometry N (RGS7–Gβ5 heterodimers per GPR158 dimer) [1]: 2
Molecule: RGS7–Gβ5 heterodimer (from UniProt P49802 1-495; O14775 1-395) (complex)

stoichiometry N (apo GPR158 (human)): 2 protomers
Molecule: apo GPR158 (from UniProt Q5T848 24-710) (receptor)

B1: GPR158 (residues 1–863) (receptor, human, UniProt Q5T848 24-863, looked up)
chain: ASRDPQGRPDSPRERTPKGKPHAQQPGRASASDSSAPWSRSTDGTILAQKLAEEVPMDVASYLYTGDSHQLKRANCSGRYELAGLPGKWPALASAHPSLHRALDTLTHATNFLNVMLQSNKSREQNLQDDLDWYQALVWSLLEGEPSISRAAITFSTDSLSAPAPQVFLQATREESRILLQDLSSSAPHLANATLETEWFHGLRRKWRPHLHRRGPNQGPRGLGHSWRRKDGLGGDKSHFKWSPPYLECENGSYKPGWLVTLSSAIYGLQPNLVPEFRGVMKVDINLQKVDIDQCSSDGWFSGTHKCHLNNSECMPIKGLGFVLGAYECICKAGFYHPGVLPVNNFRRRGPDQHISGSTKDVSEEAYVCLPCREGCPFCADDSPCFVQEDKYLRLAIISFQALCMLLDFVSMLVVYHFRKAKSIRASGLILLETILFGSLLLYFPVVILYFEPSTFRCILLRWARLLGFATVYGTVTLKLHRVLKVFLSRTAQRIPYMTGGRVMRMLAVILLVVFWFLIGWTSSVCQNLEKQISLIGQGKTSDHLIFNMCLIDRWDYMTAVAEFLFLLWGVYLCYAVRTVPSAFHEPRYMAVAVHNELIISAIFHTIRFVLASRLQSDWMLMLYFAHTHLTVTVTIGLLLIPKFSHSSNNPRDDIATEAYEDELDMGRSGSYLNSSINSAWSEHSLDPEDIRDELKKLYAQLEIYKRKKMITNNPHLQKKRCSKKGLGRSIMRRITEIPETVSRQCSKEDKEGADHGTAKGTALIRKNPPESSGNTGKSKEETLKNRVFSLKKSHSTYDHVRDQTEESSSLPTESQEEETTENSTLESLSGKKLTQKLKE
notes: signal peptide in the construct; human GPR158 residues 1-863, followed by a PreScission protease site, GFP and a Twin-Strep II tag; No PreScission cleavage is told for the purification of the complex
stoichiometry N [2]: 2 protomers

Source: publication PMC8611064, “Structure of the class C orphan GPCR GPR158 in complex with RGS7-Gβ5” (Nature Communications, 2021)
